Here are results for three molecules from paper doi:10.1101/325712 (bioRxiv, 2018).

Square brackets hold non-standard residues; d marks the D form. Ends that are not written are not given here. pS = N[C@@H](COP(=O)(O)O)C(=O)O

Test [1] deals with T1, human FLNC domains 18-21 (residues 1943-2408), EEF-tagged (human, UniProt Q14315 1943-2408).
T1 sequence: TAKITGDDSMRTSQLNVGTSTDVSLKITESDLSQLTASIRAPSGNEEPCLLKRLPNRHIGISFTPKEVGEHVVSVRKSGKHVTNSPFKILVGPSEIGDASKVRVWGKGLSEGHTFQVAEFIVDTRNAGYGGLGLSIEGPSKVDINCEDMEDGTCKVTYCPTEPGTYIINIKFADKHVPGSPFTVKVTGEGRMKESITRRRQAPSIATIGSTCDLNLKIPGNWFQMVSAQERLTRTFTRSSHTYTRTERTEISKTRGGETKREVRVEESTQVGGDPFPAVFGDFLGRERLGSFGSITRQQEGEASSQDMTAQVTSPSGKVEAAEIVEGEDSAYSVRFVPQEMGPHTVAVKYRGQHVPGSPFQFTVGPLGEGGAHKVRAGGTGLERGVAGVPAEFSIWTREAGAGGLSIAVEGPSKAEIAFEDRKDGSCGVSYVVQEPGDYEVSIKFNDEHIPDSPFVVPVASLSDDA
As to the kind of experiment: native MS.

The target of test [2] is human HspB1 ACD (residues 84-170) (human, UniProt P04792 84-170). As to the kind of experiment: crystal structure.
Sequence of human HspB1 ACD (residues 84-170) (P04792 84-170): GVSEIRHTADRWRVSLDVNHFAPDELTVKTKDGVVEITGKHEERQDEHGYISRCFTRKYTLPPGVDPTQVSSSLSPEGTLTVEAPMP

As a reminder, the Kd is the free concentration of one partner at which half of the binding sites on the other are occupied at equilibrium, for simple one-to-one binding. Low readings indicate tighter binding, high ones weaker binding. Take Ac-QLSSGVSEI (not fully specified) [HspB1 peptide residues 80-88, phosphorylated]: in test [1], the Kd amounted to 110 ± 10 µM.

Take ALSRQL[pS]SGVSEI [HspB1 peptide residues 76-88 phosphorylated at Ser82]: in test [2], the binding result was “binds”.

On to Ac-QLSSGVSEI [HspB1 peptide residues 80-88, unphosphorylated], for which binding in test [1] was characterised by a dissociation constant (Kd) of 130 ± 17 µM.
